Data as given in US20230174619A1 (published 2023).
Substitutions are numbered along the chain they refer to. In names and notes the source's numbering stands. Values belong to the binder of their own block, whether it stands above or below them.

Columns and labels:
murine PD-1-Fc [1] = biological target: T1, murine PD-1-Fc (murine, UniProt Q02242 25-167); assay: bio-layer interferometry (Octet), murine PD-1-Fc surface-immobilized, His-tagged PD-L1 domain
T1 construct: Surface-immobilized in the BLI assay; It differs from the selection antigen (murine PD-1 31-150, C83S, AviTag); also called murine PD-iFc; not shown: Fc portion
T1 sequence (looked up): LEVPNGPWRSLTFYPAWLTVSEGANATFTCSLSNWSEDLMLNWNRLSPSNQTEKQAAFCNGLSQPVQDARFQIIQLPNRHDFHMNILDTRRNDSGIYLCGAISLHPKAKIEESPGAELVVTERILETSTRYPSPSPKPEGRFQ
Experimental: Amino acids are indicated and shown as sticks. (B) Structural alignment indicates an identical structural conformation. (C)-(E) Representative bio-layer interferometry sensograms for PD-L1 wt (C) and two indicated engineered PD-L1 variants (D, E). Raw data (thick lines) was fitted using 1:1 langmuir interaction model (thin lines).
(§1) Phage selections were performed using as an antigen recombinant murine PD-1 protein (amino acids 31-150) with C83S substitution fused to AviTag peptide, biotinylated in vivo and purified from E. coli. After a couple of selection rounds, binding of enriched phage clones were analyzed by ELISA and the selected PD-L1 variants were sequenced. In a competitive phage IC₅₀ ELISA, the 5 PD-L1 variants were examined for their binding properties by competing with 500 nM or 50 nM in solution with PD-1-Fc (FIG. 1).
Amino acid positions 54, 56, 63, 66, 68, 69, 76, 113, 115, and 121-125 were randomized. For the selected variants, dashes represent no amino acid change relative to the wild type sequence. Kd values for the interaction of the variants and murine PD-1 were obtained by bio-layer interferometry; n/a—not available. Table 2 indicates R113 because the original C113 of the murine sequence was substituted already prior to library construction, as indicated above.

murine PD-1-Fc [2] = biological target: T1, murine PD-1-Fc; assay: bio-layer interferometry 'in similar experiments', dimeric Fc fusion (avidity)
Experimental: as §1
(§2) After expression and purification of the Fc fusion proteins, we obtained with one step purification on a protein A column, good purity and an average yield of 200 mg/L Expi293F culture (FIG. 4). In order to verify whether the purified protein is still binding the PD-1, we determined PD-1/PD-L1 affinities as before.

murine PD-1-Fc [3] = biological target: T1, murine PD-1-Fc; assay: bio-layer interferometry (Octet), murine PD-1-Fc surface-immobilized; reference PD-L1 wt in the same format
murine PD-1-Fc [4] = biological target: T1, murine PD-1-Fc; assay: bio-layer interferometry, monomeric variant 258 as retold in the text (Table 1 prints 2.17)
murine PD-1-Fc [5] = biological target: T1, murine PD-1-Fc; assay: bio-layer interferometry 'as before', dimeric Fc fusion (avidity)
Experimental: as §1, §2

murine PD-1-Fc [6] = biological target: T1, murine PD-1-Fc; assay: bio-layer interferometry, Fc fusions; reference wt Fc fusion

B1: PD-L1 wt, distal Ig-like domain of murine PD-L1 (amino acids 18-132) with C113R, His-tag fusion expressed in E. coli (ligand)
chain: AFTITAPKDLYVVEYGSNVTMECRFPVERELDLLALVVYWEKEDEQVIQFVAGEEDLKPQHSNFRGRASLPKDQLLKGNAALQITDVKLQDAGVYRCIISYGGADYKRITLKVNA
notes: also called unmodified PD-L1 wt; wt PD-L1; not shown: His-tag
Kd (murine PD-1-Fc [1]): 66 nM

B2: PD-L1 wt Fc fusion protein (Ig-like V-type domain of PD-L1 fused to human Fc), expressed in Expi293F (Fc fusion)
chain: B1 chain
notes: also called wt (200); wt protein; not shown: linker/hinge and human Fc
Kd (murine PD-1-Fc [2]): ~0.6 nM

B4: PD-L1 variant 214, distal Ig-like domain of murine PD-L1 (amino acids 18-132), His-tag fusion expressed in E. coli (ligand)
chain: B1 chain with V37L, Y39D, Q49R, V51E, A52S, P59H
notes: not shown: His-tag
fold advantage in binding compared to PD-L1 wt (murine PD-1-Fc [3]): ≤ 30 fold
Kd (murine PD-1-Fc [1]): 2.54 nM

B5: PD-L1 variant 214 Fc fusion protein (Ig-like V-type domain fused to human Fc), expressed in Expi293F (Fc fusion)
chain: B1 chain with V37L, Y39D, Q49R, V51E, A52S, P59H
notes: not shown: linker/hinge and human Fc
Kd (murine PD-1-Fc [5]): 0.088 nM
fold improved affinity against the wt Fc fusion (murine PD-1-Fc [6]): ≤ 8 fold

More lines, now with the values ahead:

fold advantage in binding compared to PD-L1 wt (murine PD-1-Fc [3]): ≤ 30 fold
Kd (murine PD-1-Fc [4]): 2.14 nM
Kd (murine PD-1-Fc [1]): 2.17 nM
B3: PD-L1 variant 258, distal Ig-like domain of murine PD-L1 (amino acids 18-132), His-tag fusion expressed in E. coli (ligand)
chain: B1 chain with Y39S, P59F, I98L
notes: not shown: His-tag

Kd (murine PD-1-Fc [5]): 0.077 nM
fold improved affinity against the wt Fc fusion (murine PD-1-Fc [6]): ≤ 8 fold
B6: PD-L1 variant 258 Fc fusion protein (Ig-like V-type domain fused to human Fc), expressed in Expi293F (Fc fusion)
chain: B1 chain with Y39S, P59F, I98L
notes: as for B5
